Reference: patent publication US20040063907A1 (published 2004)

What was measured:
[1] = target: T1, Beta galactosidase (negative control protein purified from E. coli) (UniProt P00722 1-1024 = β-galactosidase, limits assumed); experiment: ELISA, hybridoma supernatant on coated protein, anti-mouse HRP
T1 construct: also called β-galactosidase; p-galactosidase

[2] = target: T2, purified recombinant C35 protein generated in E. coli (human, UniProt Q9BRT3 1-115, limits assumed); experiment: ELISA, hybridoma supernatant on coated C35 protein, anti-mouse HRP
T2 construct: also called hC35 protein; soluble C35 protein
T2 sequence: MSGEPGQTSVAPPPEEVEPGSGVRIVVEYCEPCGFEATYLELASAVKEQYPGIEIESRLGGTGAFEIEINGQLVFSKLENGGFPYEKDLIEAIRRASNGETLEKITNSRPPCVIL

[3] = target: T3, C35 protein, bacterially synthesized (recombinant human C35 purified from E. coli) (human, UniProt Q9BRT3 1-115, limits assumed); experiment: ELISA screen of hybridoma supernatants on plates coated with C35 protein
T3 construct: also called hC35; recombinant C35 protein
T3 sequence: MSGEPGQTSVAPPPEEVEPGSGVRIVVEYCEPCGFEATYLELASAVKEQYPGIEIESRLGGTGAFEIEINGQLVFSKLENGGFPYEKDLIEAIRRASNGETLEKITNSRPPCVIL

[4] = target: T4, C35 as expressed by cells or tissue (flow cytometry, immunohistochemistry) (human, UniProt Q9BRT3 2-112); experiment: immunohistochemistry of breast tumour sections
T4 construct: also called endogenous C35
T4 sequence: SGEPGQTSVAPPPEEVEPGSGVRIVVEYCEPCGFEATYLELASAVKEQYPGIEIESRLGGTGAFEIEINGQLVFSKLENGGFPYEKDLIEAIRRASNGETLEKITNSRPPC

[5] = target: T5, C35 polypeptide, as expressed by human tumor cells and breast tumor tissue (human, UniProt Q9BRT3 2-112); experiment: immunohistochemistry on paraffin sections, affinity purified antibody
T5 construct: 115 amino acid protein with a predicted prenylation motif CVIL at 112-115; It was detected on unfixed, non-permeabilized tumor cells and in paraffin sections; also called C35 protein; C35 antigen
T5 sequence: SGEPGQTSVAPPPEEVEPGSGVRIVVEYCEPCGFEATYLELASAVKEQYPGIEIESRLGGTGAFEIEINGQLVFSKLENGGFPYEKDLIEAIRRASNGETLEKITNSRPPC

HLA-A*0201 = HLA-A*0201 (human); experiment: fluorescence polarization competition, test peptide at 100 uM against the fluorescent-labeled peptide on HLA-A*0201, from Ymax
soluble HLA-B*0702 = soluble HLA-B*0702 (human); experiment: fluorescence polarization competition against the fluorescent labeled standard on soluble HLA-B*0702

T1 sequence (P00722 whole entry): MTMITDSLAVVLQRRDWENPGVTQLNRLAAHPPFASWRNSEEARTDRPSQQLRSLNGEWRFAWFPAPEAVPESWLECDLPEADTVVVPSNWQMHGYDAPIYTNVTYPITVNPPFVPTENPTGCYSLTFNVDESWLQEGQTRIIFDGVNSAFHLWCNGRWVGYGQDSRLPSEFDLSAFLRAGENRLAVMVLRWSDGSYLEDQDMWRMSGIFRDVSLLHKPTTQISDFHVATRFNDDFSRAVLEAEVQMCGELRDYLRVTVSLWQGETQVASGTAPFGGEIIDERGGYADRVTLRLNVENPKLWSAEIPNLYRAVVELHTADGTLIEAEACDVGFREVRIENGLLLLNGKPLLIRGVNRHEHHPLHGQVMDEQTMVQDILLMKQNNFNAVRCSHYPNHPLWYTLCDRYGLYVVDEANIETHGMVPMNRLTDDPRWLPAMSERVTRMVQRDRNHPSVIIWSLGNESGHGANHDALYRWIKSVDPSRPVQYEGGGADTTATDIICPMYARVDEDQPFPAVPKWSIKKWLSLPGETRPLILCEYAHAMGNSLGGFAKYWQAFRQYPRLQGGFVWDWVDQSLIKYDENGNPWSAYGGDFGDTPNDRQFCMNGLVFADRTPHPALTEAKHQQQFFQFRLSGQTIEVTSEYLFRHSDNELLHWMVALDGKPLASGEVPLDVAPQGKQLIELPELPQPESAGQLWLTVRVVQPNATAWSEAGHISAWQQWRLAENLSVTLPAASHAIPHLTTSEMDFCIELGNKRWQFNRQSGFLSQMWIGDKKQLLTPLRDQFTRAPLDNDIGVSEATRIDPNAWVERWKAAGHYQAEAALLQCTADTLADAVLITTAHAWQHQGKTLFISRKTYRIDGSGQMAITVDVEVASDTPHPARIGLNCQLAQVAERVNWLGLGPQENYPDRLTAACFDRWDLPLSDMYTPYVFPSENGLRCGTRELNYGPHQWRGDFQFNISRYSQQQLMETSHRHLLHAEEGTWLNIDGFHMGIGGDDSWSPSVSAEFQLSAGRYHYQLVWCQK

B1: 1E11 monoclonal antibody (antibody, mouse IgG1, V domains shown)
VH: DVQLQESGPGLVKPSQSLSLTCSVTGYSITSGYFWNWIRQFPGNKLEWMGYISYDGSNNSNPSLKNRISFTRDTSKNQFFLKFNSVTTDDSAAYYCTRGTTGFAYWGQGTLVTVSA
VL: QIVLTQSPAIMSASPGEKVTISCSASSSVSYMNWYQQKPGSSPKPWIYHTSNLASGVPARFSGSGSGTSYSLTISSMEAEDAATYYCQQYHSYPPTFGGGTKLEIK
notes: also called IE11
- binding result [1]: no binding
- binding result [2]: binds

B2: monoclonal antibody of hybridoma clone 1E11 (antibody, mouse IgG1, V domains shown)
VH: DVQLQESGPGLVKPSQSLSLTCSVTGYSITSGYFWNWIRQFPGNKLEWMGYISYDGSNNSNPSLKNRISFTRDTSKNQFFLKFNSVTTDDSAAYYCTRGTTGFAYWGQGTLVTVSA
VL: QIVLTQSPAIMSASPGEKVTISCSASSSVSYMNWYQQKPGSSPKPWIYHTSNLASGVPARFSGSGSGTSYSLTISSMEAEDAATYYCQQYHSYPPTFGGGTKLEIK
notes: Mouse IgG1 kappa, immunization BCA34.hC35; See the note of 1F2 for a translation; also called IE11
- binding result [3]: binds

B3: monoclonal antibody of hybridoma clone 1F2 (antibody, V domains shown)
VH: DVQLQESGPGLVKPSQSLSLTCSVTGYSITSGYFWNWIRQFPGNKLEWMGYISYDGSNNSNPSLKNRISFTRDTSKNQFFLKFNSVTTDDSAAYYCTRGTTGFAYWGQGTLVTVSA
VL: QIVLTQSPAIMSASPGEKVTISCSASSSVSYMNWYQQKPGSSPKPWIYHTSNLASGVPARFSGSGSGTSYSLTISSMEAEDAATYYCQQYHSYPPTFGGGTKLEIK
notes: also called IF2
- binding result [4]: binds
- binding result [3]: binds

B4: 1F2 monoclonal antibody (antibody, V domains shown)
VH: DVQLQESGPGLVKPSQSLSLTCSVTGYSITSGYFWNWIRQFPGNKLEWMGYISYDGSNNSNPSLKNRISFTRDTSKNQFFLKFNSVTTDDSAAYYCTRGTTGFAYWGQGTLVTVSA
VL: QIVLTQSPAIMSASPGEKVTISCSASSSVSYMNWYQQKPGSSPKPWIYHTSNLASGVPARFSGSGSGTSYSLTISSMEAEDAATYYCQQYHSYPPTFGGGTKLEIK
notes: Mouse IgG1 kappa; In the VL, one printed codon 'get' was read as gct; also called IF2
- binding result [1]: no binding
- binding result [2]: binds
- binding result [5]: binds

B5: 1B3 monoclonal antibody (antibody, mouse IgG1, V domains shown)
VH: EVQLQESGPSLVKPSQTLSLTCSVTGDSITSGYWNWIRKFPGNKLEYVGYISYSGGTYYNPSLKSRISITRDTSKNHYYLQLNSVTTEDTATYYCARGAYYGGAFFPYFDVWGAGTTVTVSS
VL: DVQITQSPSFLAASPGETITINCRASKYISKHLVWYQEKPGETKKLLIYSGSTLQSGLPSRFSGSGSGTDFTLTISSLEPEDFAMYYCQQHNEYPLTFGAGTKLELK
notes: Mouse IgG1, tested as hybridoma supernatant
- binding result [1]: no binding

B6: 3E10 monoclonal antibody (antibody, V domains shown)
VH: EVQLQESGPSLVKPSQTLSLTCSVTGDSITSGYWNWIRKFPGNKLEYVGYISYSGGTYYNPSLKSRISITRDTSKNHYYLQLNSVTTEDTATYYCARGAYYGGAFFPYFDVWGAGTTVTVSS
VL: DVQITQSPSFLAASPGETITINCRASKYISKHLVWYQEKPGETKKLLIYSGSTLQSGLPSRFSGSGSGTDFTLTISSLEPEDFAMYYCQQHNEYPLTFGAGTKLELK
- binding result [1]: no binding

Binder: ITNSRPPCV [C35 peptide I105 to V113]
- % inhibition (HLA-A*0201): 86.4%

Binder: EPGQTSVAP [C35 peptide E4 to P12]
- % inhibition (soluble HLA-B*0702): 54.6%

Binder: TGAFEIEIN (also called TGAFEIEIN) [C35 peptide T62 to N70]
- % inhibition (soluble HLA-B*0702): 38.8%

Binder: ITNSRPPAV [C35 peptide I105 to V113 (analog with Ala substituted for Cys at 112)]
- % inhibition (soluble HLA-B*0702): 45.2%

Binder: GAFEIEING (also called GAFEIEING) [C35 peptide G63 to G71]
- % inhibition (soluble HLA-B*0702): 51.4%

Binder: GTGAFEIEI [C35 peptide G61 to I69]
- % inhibition (HLA-A*0201): 46.5%

Binder: TYLELASAV [C35 peptide T38 to V46]
- % inhibition (HLA-A*0201): 47.3%

Binder: KITNSRPPA [C35 peptide K104 to A112 (analog with Ala substituted for Cys at 112)]
- % inhibition (soluble HLA-B*0702): 69.4%

Binder: SVAPPPEEV [C35 peptide S9 to V17]
- % inhibition (HLA-A*0201): 96.9%

Binder: FEIEINGQL [C35 peptide F65 to L73]
- % inhibition (HLA-A*0201): 74.8%

Binder: NSRPPAVIL [C35 peptide N107 to L115 (analog with Ala substituted for Cys at 112)]
- % inhibition (soluble HLA-B*0702): 68.2%

Binder: SGVRIVVEY [C35 peptide S21 to Y29]
- % inhibition (HLA-A*0201): 90.8%
